Results from US20070167369A1, “Novel use of isolated polypeptide comprising four FAS-1 domains, EM1 domain and RGD motif” (KYUNGPOOK NATIONAL UNIVERSITY INDUSTRY-ACADEMIC COOPERATION …, priority 2004, published 2007).

B1: Regenin: size control of truncated βig-h3: protein that expresses four copies of the fourth fas-1 domain (protein)
chain: MGTVMDVLKGDNRFSMLVAAIQSAGLTETLNREGVYTVFAPTNEAFRALPPRERSRLLGDAKELANILKYHIGDEILVSGGIGALVRLKSLQGDKLEVSLKNNVVSVNKEPVAEPDIMATNGVVHVITNVLMGTVMDVLKGDNRFSMLVAAIQSAGLTETLNREGVYTVFAPTNEAFRALPPRERSRLLGDAKELANILKYHIGDEILVSGGIGALVRLKSLQGDKLEVSLKNNVVSVNKEPVAEPDIMATNGVVHVITNVLMGTVMDVLKGDNRFSMLVAAIQSAGLTETLNREGVYTVFAPTNEAFRALPPRERSRLLGDAKELANILKYHIGDEILVSGGIGALVRLKSLQGDKLEVSLKNNVVSVNKEPVAEPDIMATNGVVHVITNVLMGTVMDVLKGDNRFSMLVAAIQSAGLTETLNREGVYTVFAPTNEAFRALPPRERSRLLGDAKELANILKYHIGDEILVSGGIGALVRLKSLQGDKLEVSLKNNVVSVNKEPVAEPDIMATNGVVHVITNVL
B2: βig-h3 D-II: recombinant protein containing the second fas-1 domain of human βig-h3 (SEQ ID NO: 62) (protein, listed as Homo sapiens)
chain: NIQQIIEIEDTFETLRAAVAASGLNTMLEGNGQYTLLAPTNEAFEKIPSETLNRILGDPEALRDLLNNHILKSAMCAEAIVAGLSVETLEGTTLEVGCSGDMLTINGKAIISNKDILATNGVIHYIDELLI

Key:
Assay type in all cases: cell-based, human
HUVECs [1] = test: Endothelial tube formation in Matrigel (Example 14)
Method: Matrigel (Chemicon, International Inc, Temecula, Calif.) was added (100 μl) into each well of a 96-well plate and polymerized for 30 minutes at 37° C. HUVECs were suspended in medium at a density of 3×10^5 cells/ml, and 0.1 ml of the cell suspension was pre-incubated with or without the indicated concentration of the truncated βig-h3, the fas-1 domain and Regenin for 40 min at 37° C., then seeded on the surface of the Matrigel. Cells were incubated for 6 to 10 hours at 37° C. The cells were then photographed, and branch points from 4 high-power fields (x200) were counted and averaged.

HUVEC = test: Adhesion of endothelial cells to vitronectin (Example 13-1)
Method: Flat-bottomed 96-well ELISA plates (Costar, Corning, Inc., NY) were incubated overnight at 4° C. with 5 μg/ml of vitronectin (Promega, Madison, Wis.) and blocked for 1 hour at room temperature with PBS containing 2% bovine serum albumin (BSA).
Primary human umbilical vein endothelial cells (HUVEC) were cultured at 37° C. in 5% CO2 in M199 medium supplemented with 20% fetal bovine serum. For all the experiments, HUVECs were used at passage 4 or less. HUVEC cells were suspended in medium at a density of 3×10^5 cells/ml, and 0.1 ml of the cell suspension was pre-incubated with or without the indicated concentration of the truncated βig-h3, the fas-1 domain and Regenin for 40 min at 37° C., then added to each well of the coated. After incubation for 5 to 10 minutes at 37° C., unattached cells were removed by rinsing with PBS. Attached cells were then incubated for 1 hour at 37° C. in 50 mM citrated buffer (pH 5.0) containing 3.75 mM p-nitrophenyl-N-acetyl-Dglycosamide and 0.25% Triton X-100. Enzyme activity was blocked by adding 50 mM glycine buffer (pH 10.4) containing 5 mM EDTA, and the absorbance was measured at 405 nm in a Bio-Rad model 550 microplate reader.

HUVECs [2] = test: Migration of endothelial cells to vitronectin, transwell (Example 13-2)
Method: Cell migration assays were done in transwell plates (8 μm pore size, Costar, Cambridge, Mass.). The undersurface of the membrane was coated with 5 μg/ml of vitronectin at 4° C. and blocked for 1 hour at room temperature with PBS containing 2% BSA. HUVECs were suspended in medium at a density of 3×10^5 cells/ml, and 0.1 ml of the cell suspension was pre-incubated with or without the indicated concentration of the truncated βig-h3, the fas-1 domain and Regenin for 40 min at 37° C., then added to the upper compartment of the filter. Cells were allowed to migrate for 4 to 6 hours at 37° C. The filters were fixed with 8% glutaraldehyde and stained with crystal violet, and non-migrating cells on the upper surface of the filter were removed by wiping with a cotton swab. The extent of cell migration was determined by light microscopy, and within each well, counting was done in nine randomly selected microscopic high power fields (x200).

HUVECs [3] = test: Endothelial tube formation assay on Matrigel (Examples 9-1 and 11); details: Example 11; controls BSA or Nus protein
Method: First, 100 μl of Matrigel (Chemicon, International Inc, Temecula, Calif.) was added to each well of a 96-well plate and allowed to polymerize. HUVECs were suspended in medium at a density of 3×10^5 cells/ml, and 0.1 ml of the cell suspension was added to each well of the plate coated with Matrigel. At this time, 5 μM or 10 μM of the fas-1 domain (βig-h3 D-IV) prepared in Example 1 above was added together. A control was either treated with BSA or had no treatment. Thereafter, the cells were incubated at 37° C. for 16-18 hours. The cells were photographed, and endothelial tubes were counted and averaged.
For this purpose, the second fas-1 domain of βig-h3 (βig-h3 D-II) was prepared in the same manner as in Example 1-1 above. Since each domain of stabilin-II is insoluble, it was prepared in the form of soluble protein by cloning into the BamHI/XhoI sites of a Nus-conjugated pET43.1 vector (Novagen, USA). The prepared recombinant proteins were named “Nus-fas3” and “Nus-fas7”, respectively. A control to the second fas-1 domain of βig-h3 was treated with BSA, and a control to the fas-1 domain of stabilin-II was treated with a Nus protein. Thereafter, an endothelial tube formation assay was performed in the same manner as in Example 9-1.

| Molecule | 70%-inhibition of tube formation observed at (HUVECs [1]; concentration giving 70% inhibition) [µM] | inhibition of tube formation (HUVECs [1]; various concentrations, 6 to 10 hours) | inhibition of adhesion to vitronectin (HUVEC; 500 nM) | inhibition of adhesion to vitronectin (HUVEC; various concentrations, vitronectin 5 μg/ml) | IC50 (HUVECs [2]; read-out: half-inhibition of migration toward vitronectin observed at) [µM] | inhibition of migration to vitronectin (HUVECs [2]; various concentrations, 4 to 6 hours) | inhibition of endothelial tube formation by various fas-1 domains (HUVECs [3]) |
| --- | --- | --- | --- | --- | --- | --- | --- |
| B1 | 5 | dose-dependent inhibition | ineffective | dose-dependent inhibition | 5 | dose-dependent inhibition | – |
| B2 | – | – | – | – | – | – | completely inhibited |
